# In patent publication EP2586797A2:
# Residue numbers refer to the chain shown, from its start.
# B1: Composite human antibody variant VH5/VK3 (antibody, human IgG1, V domains shown)
# VH: QVQLVQSGAEVKKPGASVKVSCTASGFNIKDTYIHWVRQARGQRLEWIGRFDPVNVNTRYDSRFRGRVTITSDASTSTAYMELSSLRSEDTAVYYCSRSYYNGRRRFTYWGQGTLVTVSS
# VL: DIVMTQSPSSLTASVGDRVTITCKASQSLLSSGNQKNYLTWYQQKPGQPPKLLIYWASIRESGVPDRFSGSGSGTDFTLTISSLQAEDVAVYYCQNDYNYPFTFGQGTKLEIK
# B2: Composite human antibody variant VH1/VK1 (antibody, V domains shown)
# VH: B1 VH with Q1E, V11L, R41P, V68A, S77N
# VL: B1 VL with S9D, A13V, V15L, D17E, V19A, T22N, S69T, D76F
# B3: Composite human antibody variant VH2/VK2 (antibody, human IgG1, V domains shown)
# VH: B1 VH with Q1E, V68A, S77N
# VL: B1 VL with S69T, D76F
# B4: Composite human antibody variant VH2/VK3 (antibody, human IgG1, V domains shown)
# VH: B1 VH with Q1E, V68A, S77N
# VL: B1 VL
# B5: Composite human antibody variant VH3/VK3 (antibody, human IgG1, V domains shown)
# VH: B1 VH with V68A, S77N
# VL: B1 VL
# B6: Composite human antibody variant VH1/VK3 (antibody, human IgG1, V domains shown)
# VH: B1 VH with Q1E, V11L, R41P, V68A, S77N
# VL: B1 VL
# B7: Composite human antibody variant VH4/VK3 (antibody, human IgG1, V domains shown)
# VH: B1 VH with S77N
# VL: B1 VL
# Target: Abeta42 beta amyloid peptide (UniProt P05067)
# Sequence (P05067 672-713 limits assumed): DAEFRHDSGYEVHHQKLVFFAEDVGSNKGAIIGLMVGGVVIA
# Assay: competition ELISA, NS0 supernatant titrated against 0.25 ug/ml biotinylated mouse 6E10 (mouse MDT-2007) on coated beta amyloid; IC50 normalised to mouse 6E10 (=1; <1 improved)
row,fold difference in IC50 relative to mouse 6E10 [fold],Binder
1,1.02,B1
2,0.78,B2
3,1.1,B3
4,0.96,B4
5,1.57,B5
6,1.93,B6
7,1.36,B7
